Reference: PMC11257983 (2024)

B1: Flag-CNK^2–549 [Drosophila] / GST-HYP [Drosophila] (parent complex)
chain 1: AYINIAEWTPDQVTDWIKGLDESMKGYLYEFSKQEIGGRALLNIRPYELENLGMLRIGHQEIVLEAVENLRNFHYHLKNDNLQFMALHVATAAKNLHRELARNHAESTKIDTRILHDITRTIATLKPLVGSLERTPFRKQEMYREYCGNVLKCGLELATIAHRDRFALQPVPAIRQSAERLENLANFVIQDISDPMVLQPASLNLVTLKKRESELGFNIESSYNGIHRVTDIKYNSPAHNSGKIEDGDEIVQINYQTVVGWQHRTVLEHLREALPDVVLTVKKRPKHTKMFGQIYMQPYRLPSKKRNMAARWAAQMPSPRAAFLTLDTEQLATGGTGSAVPDPSKSLSSEKREVLTKANPVSSASDSDSSCSDIPTPTDPKLAAREIRLYYPKPRALLQRRNTICGCEYLSLKNSDLVVPSWHERKPGIGSPTNCDPGSPSIRDKSISFGYGLEMAARPTTCIGIAGDTSTDKARRMFHEARKLKQLTEDSQREFLVDRYKPGVSKVVRFDAKEDYVMKNEKFICNVENTILETFEPIPFADEGDEDA
chain 2: MGEETINSTQNKTRTKTTRPKAVYLWTVSDVLKWYRRHCGEYTQYEQLFAQHDITGRALLRITDSSLQRMGVTDNRDREAIWREIVKQRLKTDIMEIRDMERLNIY

Variants of: B1
Test: GST pull-down, immunoblot quantification; S2 cells; GST-HYP + RRKM co-expressed; anti-Flag (CNK) blot; parent: 1

ratio to parent | Variant
0.58 | chain 1 AYINIAEWTPDQVTDWIKGLDESMKGYLYEFSKQEIGGRALLNIRPYELENLGMLRIGHQEIVLEFVENLRNRHYHLKNDNLQFMALHVATAAKNLHRELARNHAESTKIDTRILHDITRTIATLKPLVGSLERTPFRKQEMYREYCGNVLKCGLELATIAHRDRFALQPVPAIRQSAERLENLANFVIQDISDPMVLQPASLNLVTLKKRESELGFNIESSYNGIHRVTDIKYNSPAHNSGKIEDGDEIVQINYQTVVGWQHRTVLEHLREALPDVVLTVKKRPKHTKMFGQIYMQPYRLPSKKRNMAARWAAQMPSPRAAFLTLDTEQLATGGTGSAVPDPSKSLSSEKREVLTKANPVSSASDSDSSCSDIPTPTDPKLAAREIRLYYPKPRALLQRRNTICGCEYLSLKNSDLVVPSWHERKPGIGSPTNCDPGSPSIRDKSISFGYGLEMAARPTTCIGIAGDTSTDKARRMFHEARKLKQLTEDSQREFLVDRYKPGVSKVVRFDAKEDYVMKNEKFICNVENTILETFEPIPFADEGDEDA [chain 1 A66F, chain 1 F73R]
0.22 | chain 1 AYINIAEWTPDQVTDWIKGLDESMKGYLYEFSKQEIGGRALLNIRPYELENLGMLRIGHQEIVLEAVENLRNRHYHLKNDNLQFMALHVATAAKNLHRELARNHAESTKIDTRILHDITRTIATLKPLVGSLERTPFRKQEMYREYCGNVLKCGLELATIAHRDRFALQPVPAIRQSAERLENLANFVIQDISDPMVLQPASLNLVTLKKRESELGFNIESSYNGIHRVTDIKYNSPAHNSGKIEDGDRIVQINYQTVVGWQHRTVLEHLREALPDVVLTVKKRPKHTKMFGQIYMQPYRLPSKKRNMAARWAAQMPSPRAAFLTLDTEQLATGGTGSAVPDPSKSLSSEKREVLTKANPVSSASDSDSSCSDIPTPTDPKLAAREIRLYYPKPRALLQRRNTICGCEYLSLKNSDLVVPSWHERKPGIGSPTNCDPGSPSIRDKSISFGYGLEMAARPTTCIGIAGDTSTDKARRMFHEARKLKQLTEDSQREFLVDRYKPGVSKVVRFDAKEDYVMKNEKFICNVENTILETFEPIPFADEGDEDA [chain 1 F73R, chain 1 E249R]

Variants of: B1
Test: GST pull-down, immunoblot quantification; S2 cells; only Flag-CNK2–549 and GST-HYP co-expressed; anti-Flag blot; parent: 1

ratio to parent | Variant
0.12 | chain 1 AYINIAEWTPDQVTDWIKGLDESMKGYLYEFSKQEIGGRALLNIRPYELENLGMLRIGHQEIVLEFVENLRNRHYHLKNDNLQFMALHVATAAKNLHRELARNHAESTKIDTRILHDITRTIATLKPLVGSLERTPFRKQEMYREYCGNVLKCGLELATIAHRDRFALQPVPAIRQSAERLENLANFVIQDISDPMVLQPASLNLVTLKKRESELGFNIESSYNGIHRVTDIKYNSPAHNSGKIEDGDEIVQINYQTVVGWQHRTVLEHLREALPDVVLTVKKRPKHTKMFGQIYMQPYRLPSKKRNMAARWAAQMPSPRAAFLTLDTEQLATGGTGSAVPDPSKSLSSEKREVLTKANPVSSASDSDSSCSDIPTPTDPKLAAREIRLYYPKPRALLQRRNTICGCEYLSLKNSDLVVPSWHERKPGIGSPTNCDPGSPSIRDKSISFGYGLEMAARPTTCIGIAGDTSTDKARRMFHEARKLKQLTEDSQREFLVDRYKPGVSKVVRFDAKEDYVMKNEKFICNVENTILETFEPIPFADEGDEDA [chain 1 A66F, chain 1 F73R]
0.06 | chain 1 AYINIAEWTPDQVTDWIKGLDESMKGYLYEFSKQEIGGRALLNIRPYELENLGMLRIGHQEIVLEAVENLRNRHYHLKNDNLQFMALHVATAAKNLHRELARNHAESTKIDTRILHDITRTIATLKPLVGSLERTPFRKQEMYREYCGNVLKCGLELATIAHRDRFALQPVPAIRQSAERLENLANFVIQDISDPMVLQPASLNLVTLKKRESELGFNIESSYNGIHRVTDIKYNSPAHNSGKIEDGDRIVQINYQTVVGWQHRTVLEHLREALPDVVLTVKKRPKHTKMFGQIYMQPYRLPSKKRNMAARWAAQMPSPRAAFLTLDTEQLATGGTGSAVPDPSKSLSSEKREVLTKANPVSSASDSDSSCSDIPTPTDPKLAAREIRLYYPKPRALLQRRNTICGCEYLSLKNSDLVVPSWHERKPGIGSPTNCDPGSPSIRDKSISFGYGLEMAARPTTCIGIAGDTSTDKARRMFHEARKLKQLTEDSQREFLVDRYKPGVSKVVRFDAKEDYVMKNEKFICNVENTILETFEPIPFADEGDEDA [chain 1 F73R, chain 1 E249R]

Variants of: B1
Test: GST pull-down, immunoblot quantification; S2 cells; GST-HYP + RRKM co-expressed; anti-Flag (CNK) blot; parent: 1
Remark: another data set of the same source

ratio to parent | Variant
1.03 | chain 1 AYINIAEWTPDQVTDWIKGLDESMKGYLYEFSKQEIGGRALLNIRPYELENLGMLRIGHQEIVLEAVENLRNFHYHLKNRNLQFMALHVATAAKNLHRELARNHAESTKIDTRILHDITRTIATLKPLVGSLERTPFRKQEMYREYCGNVLKCGLELATIAHRDRFALQPVPAIRQSAERLENLANFVIQDISDPMVLQPASLNLVTLKKRESELGFNIESSYNGIHRVTDIKYNSPAHNSGKIEDGDEIVQINYQTVVGWQHRTVLEHLREALPDVVLTVKKRPKHTKMFGQIYMQPYRLPSKKRNMAARWAAQMPSPRAAFLTLDTEQLATGGTGSAVPDPSKSLSSEKREVLTKANPVSSASDSDSSCSDIPTPTDPKLAAREIRLYYPKPRALLQRRNTICGCEYLSLKNSDLVVPSWHERKPGIGSPTNCDPGSPSIRDKSISFGYGLEMAARPTTCIGIAGDTSTDKARRMFHEARKLKQLTEDSQREFLVDRYKPGVSKVVRFDAKEDYVMKNEKFICNVENTILETFEPIPFADEGDEDA [chain 1 D80R]

Variants of: B1
Test: GST pull-down, immunoblot quantification; S2 cells; only Flag-CNK2–549 and GST-HYP co-expressed; anti-Flag blot; parent: 1
Remark: another data set of the same source

ratio to parent | Variant
0.46 | chain 1 AYINIAEWTPDQVTDWIKGLDESMKGYLYEFSKQEIGGRALLNIRPYELENLGMLRIGHQEIVLEAVENLRNFHYHLKNRNLQFMALHVATAAKNLHRELARNHAESTKIDTRILHDITRTIATLKPLVGSLERTPFRKQEMYREYCGNVLKCGLELATIAHRDRFALQPVPAIRQSAERLENLANFVIQDISDPMVLQPASLNLVTLKKRESELGFNIESSYNGIHRVTDIKYNSPAHNSGKIEDGDEIVQINYQTVVGWQHRTVLEHLREALPDVVLTVKKRPKHTKMFGQIYMQPYRLPSKKRNMAARWAAQMPSPRAAFLTLDTEQLATGGTGSAVPDPSKSLSSEKREVLTKANPVSSASDSDSSCSDIPTPTDPKLAAREIRLYYPKPRALLQRRNTICGCEYLSLKNSDLVVPSWHERKPGIGSPTNCDPGSPSIRDKSISFGYGLEMAARPTTCIGIAGDTSTDKARRMFHEARKLKQLTEDSQREFLVDRYKPGVSKVVRFDAKEDYVMKNEKFICNVENTILETFEPIPFADEGDEDA [chain 1 D80R]
